Where “and” joins values, the source holds several entries; their conditions need not be identical. Identical values can stand only once.
How the values were obtained:
[1] = target: His6-tagged B. cereus C-SpoIISA (pETDuetCIISA Bc; pETDuetCIISAB Bc) (Bacillus cereus ATCC 14579) (UniProt Q81DD1); assay: cross-linking; 80 μg Ni-purified His6-C-SpoIISA with glutaraldehyde (5 μl of 2.3% in 100 μl), 30 min, 37°C; 12% SDS-PAGE and Western blot
[2] = target: untagged B. cereus C-SpoIISA (Bacillus cereus ATCC 14579) (UniProt Q81DD1); assay: SEC; purified untagged C-SpoIISA on Superose 6 10/300 GL, 0.4 ml/min, absorbance at 280 nm

Substance | stoichiometry N [1] | stoichiometry N [2]
His6-tagged B. cereus C-SpoIISA (pETDuetCIISA Bc; pETDuetCIISAB Bc) (from UniProt Q81DD1 1-245) (domain or fragment) | 2 and 3 | 
untagged B. cereus C-SpoIISA (from UniProt Q81DD1 1-245) (domain or fragment) |  | 2 and 3
